Here are results for three substances from article PMC11503520.

In assay [1] the target is AAV8 viral protein 3 (VP3) (adeno-associated virus serotype 8). Nature of the assay: native MS; orbitrap-based CDMS of empty particles (EP) of AAV8-H4C1, AAV8-FIXp and AAV8-FIXp hFIX mini-intron after buffer exchange into 200 mM ammonium acetate; average VP stoichiometry estimated from the mass distribution by assigning integer stoichiometries (0-60 for each VP) and weighted averaging.

Assay [2] shares this target. Nature of the assay: CE-SDS of purified capsids; empty particles (EP) separated by DG-UC, denatured with SDS and mercaptoethanol, 60 °C 3 min; VP components detected at 214 nm; VP3 is the sum of VP3 and VP3 clip.
Assay [3] has the same target. Put plainly: native MS; orbitrap-based CDMS of full particles (FP); mass of the genome subtracted from the mass distribution of FP, then VP stoichiometry of the capsid of FP estimated as for EP.
The target is the same in assay [4]. Put plainly: CE-SDS of purified capsids; AAV8-H4C1, not separated into EP and FP by DG-UC: ratio of the mixture; VP3 is the sum of VP3 and VP3 clip.
Assay [5] shares this target. Nature of the assay: CE-SDS of purified capsids; full particles (FP) separated by DG-UC, denatured with SDS and mercaptoethanol, 60 °C 3 min; VP components detected at 214 nm; VP3 is the sum of VP3 and VP3 clip.

“And” between values parts separate entries of the source, which are not always exact repeats. Equal entries are not always repeated.

“AAV8 viral protein 1 (VP1) (natural protein)”: the VP stoichiometry VP1: VP2: VP3 (copies of VP1 in the capsid) in assay [1] was 2.5 and 2.6; in assay [2], 4.9 and 5; in assay [3], 1.7 and 3.4 and 1.8; in assay [4], 5.1; in assay [5], 4.6 and 4.7.

On to “AAV8 viral protein 2 (VP2) (natural protein)”, for which the VP stoichiometry VP1: VP2: VP3 (copies of VP2 in the capsid) in assay [1] is 9.4; in assay [2], 9.7 and 9.6; in assay [3] it was 6.6 and 12.3 and 7.1; in assay [4], 7.8; in assay [5], 9.3 and 7.5.

In the case of “AAV8 viral protein 3 (VP3) (natural protein)”, the VP stoichiometry VP1: VP2: VP3 (copies of VP3 in the capsid) in assay [1] is 48; in assay [2], 45.4; in assay [3] it was 51.7 and 44.2 and 51; in assay [4] it was 47; in assay [5], 46.1 and 47.8.
